Data published in publication doi:10.1101/2022.05.13.491800 (bioRxiv, 2022).

B1: Smc6 (natural protein, S. cerevisiae, UniProt Q12749 1-1114, looked up)
chain: MISTTISGKRPIEQVDDELLSLTAQQENEEQQQQRKRRRHQFAPMTQFNSNTLDEDSGFRSSSDVATADQDNFLEESPSGYIKKVILRNFMCHEHFELELGSRLNFIVGNNGSGKSAILTAITIGLGAKASETNRGSSLKDLIREGCYSAKIILHLDNSKYGAYQQGIFGNEIIVERIIKRDGPASFSLRSENGKEISNKKKDIQTVVDYFSVPVSNPMCFLSQDAARSFLTASTSQDKYSHFMKGTLLQEITENLLYASAIHDSAQENMALHLENLKSLKAEYEDAKKLLRELNQTSDLNERKMLLQAKSLWIDVAHNTDACKNLENEISGIQQKVDEVTEKIRNRQEKIERYTSDGTTIEAQIDAKVIYVNEKDSEHQNARELLRDVKSRFEKEKSNQAEAQSNIDQGRKKVDALNKTIAHLEEELTKEMGGDKDQMRQELEQLEKANEKLREVNNSLVVSLQDVKNEERDIQHERESELRTISRSIQNKKVELQNIAKGNDTFLMNFDRNMDRLLRTIEQRKNEFETPAIGPLGSLVTIRKGFEKWTRSIQRAISSSLNAFVVSNPKDNRLFRDIMRSCGIRSNIPIVTYCLSQFDYSKGRAHGNYPTIVDALEFSKPEIECLFVDLSRIERIVLIEDKNEARNFLQRNPVNVNMALSLRDRRSGFQLSGGYRLDTVTYQDKIRLKVNSSSDNGTQYLKDLIEQETKELQNIRDRYEEKLSEVRSRLKEIDGRLKSTKNEMRKTNFRMTELKMNVGKVVDTGILNSKINERKNQEQAIASYEAAKEELGLKIEQIAQEAQPIKEQYDSTKLALVEAQDELQQLKEDINSRQSKIQKYKDDTIYYEDKKKVYLENIKKIEVNVAALKEGIQRQIQNACAFCSKERIENVDLPDTQEEIKRELDKVSRMIQKAEKSLGLSQEEVIALFEKCRNKYKEGQKKYMEIDEALNRLHNSLKARDQNYKNAEKGTCFDADMDFRASLKVRKFSGNLSFIKDTKSLEIYILTTNDEKARNVDTLSGGEKSFSQMALLLATWKPMRSRIIALDEFDVFMDQVNRKIGTTLIVKKLKDIARTQTIIITPQDIGKIADIDSSGVSIHRMRDPERQNNSNFYN
B2: Smc5 (natural protein, S. cerevisiae, UniProt Q08204 1-1093, looked up)
chain: MTSLIDLGRYVERTHHGEDTEPRSKRVKIAKPDLSSFQPGSIIKIRLQDFVTYTLTEFNLSPSLNMIIGPNGSGKSTFVCAVCLGLAGKPEYIGRSKKVEDFIKNGQDVSKIEITLKNSPNVTDIEYIDARDETIKITRIITRSKRRSDYLINDYQVSESVVKTLVAQLNIQLDNLCQFLSQERVEEFARLKSVKLLVETIRSIDASLLDVLDELRELQGNEQSLQKDLDFKKAKIVHLRQESDKLRKSVESLRDFQNKKGEIELHSQLLPYVKVKDHKEKLNIYKEEYERAKANLRAILKDKKPFANTKKTLENQVEELTEKCSLKTDEFLKAKEKINEIFEKLNTIRDEVIKKKNQNEYYRGRTKKLQATIISTKEDFLRSQEILAQTHLPEKSVFEDIDIKRKEIINKEGEIRDLISEIDAKANAINHEMRSIQRQAESKTKSLTTTDKIGILNQDQDLKEVRDAVLMVREHPEMKDKILEPPIMTVSAINAQFAAYLAQCVDYNTSKALTVVDSDSYKLFANPILDKFKVNLRELSSADTTPPVPAETVRDLGFEGYLSDFITGDKRVMKMLCQTSKIHTIPVSRRELTPAQIKKLITPRPNGKILFKRIIHGNRLVDIKQSAYGSKQVFPTDVSIKQTNFYQGSIMSNEQKIRIENEIINLKNEYNDRKSTLDALSNQKSGYRHELSELASKNDDINREAHQLNEIRKKYTMRKSTIETLREKLDQLKREARKDVSQKIKDIDDQIQQLLLKQRHLLSKMASSMKSLKNCQKELISTQILQFEAQNMDVSMNDVIGFFNEREADLKSQYEDKKKFVKEMRDTPEFQSWMREIRSYDQDTKEKLNKVAEKYEEEGNFNLSFVQDVLDKLESEIAMVNHDESAVTILDQVTAELRELEHTVPQQSKDLETIKAKLKEDHAVLEPKLDDIVSKISARFARLFNNVGSAGAVRLEKPKDYAEWKIEIMVKFRDNAPLKKLDSHTQSGGERAVSTVLYMIALQEFTSAPFRVVDEINQGMDSRNERIVHKAMVENACAENTSQYFLITPKLLTGLHYHEKMRIHCVMAGSWIPNPSEDPKMIHFGETSNYSFD

Legend:
Smc5 = target: B2; experiment: SEC
Smc6 = target: B1; experiment: co-purification

| stoichiometry N (Smc5) | binding result (Smc6) | Binder |
| --- | --- | --- |
| ~1 |  | B1 |
| ~1 |  | Nse5 (natural protein, S. cerevisiae, UniProt Q03718 1-556, looked up) MDGALINSVLYVSPRNGAHYFVELTEKHLLAFEMLNSMCLLENYDHVLLFLECQFGKSHNLAVIPFDIILVLFTLSTLSEYYKEPILRANDPYNTSRETLSRRALKLLQKYLAILKEFDSEQYNLYDLELLRCQFFLAIDTLTPKKQKWGFDRFRRTKSESGVTYRQNASVDPELDQAKTFKNPYRSYISCLEQRNTILGNRLLNLKLNEPGEFINMILWTLSNSLQESTPLFLSSHEIWMPLLEILIDLFSCRQDYFIQHEVAQNVSKSLFVQRLSESPLAVFFESLNTRNFANRFSEYVFLNCDYKLPSDNYATPVHPVYNGENTIVDTYIPTIKCSPLYKSQKSLALRRKLIGSCFKLLLRVPDGHRLITPRIVADDVIQGISRTLASFNDILQFKKFFMTENLSQESYFIPLLAEGTLSEILKDTQECVVILTLVENLSDGVSFCNEVIGLVKSKCFAFTEQCSQASYEEAVLNIEKCDVCLLVLLRYLLHLIGTEAILDAKEQLEMLHAIEKNDSGRRQWAKALNLGNDPPLLYPIVSQMFGVHDKSVIIE |
|  | binds | B2 |
| ~1 |  | Nse6 (natural protein, S. cerevisiae, UniProt P40026 1-464, looked up) MGSVNSSPNEEFETVPDSQISGFDSPLIPTSVGSYFRDDDDDEKVHPNFISDPENDSLNSDEEFSSLENSDLNLSGAKAESGDDFDPILKRTIISKRKAPSNNEDEEIVKTPRKLVNYVPLKIFNLGDSFDDTITTTVAKLQDLKKEILDSPRSNKSIVITSNTVAKSELQKSIKFSGSIPEIYLDVVTKETISDKYKDWHFISKNCHYEQLMDLEMKDTAYSFLFGSSRSQGKVPEFVHLKCPSITNLLVLFGVNQEKCNSLKINYEKKENSRYDNLCTIFPVNKMLKFLMYFYSDDDNDDVREFFLKAFICLILDRKVFNAMESDHRLCFKVLELFNEAHFINSYFEIVDKNDFFLHYRLLQIFPHLQSALLRRRFSEKQGRTETIQQNIIKEFNEFFDCKNYKNLLYFILTMYGSKFIPFGPKCQVTEYFKDCILDISNETTNDVEISILKGILNLFSKIR |
